The source of these data is PMC7181634, “Enhanced succinic acid production by Mannheimia employing optimal malate dehydrogenase” (Nature Communications, 2020).

One may read the Km as the substrate concentration at which the rate is half of its maximum. The kcat is the number of substrate molecules converted per active site and unit of time at saturation. The term kcat/Km denotes the turnover number divided by the Michaelis constant.

Substrate in data set [1]: O=C(O)CC(=O)C(=O)O
The data set is described as follows: purified protein. The class given is biochemical, Corynebacterium glutamicum. The note with it: pH 7.0, 0.1 M Tris-HCl, NADH co-substrate, room temperature.

Substrate in data set [2]: O=C(O)CC(=O)C(=O)O
Kind of data set: purified protein. The data set is classed as biochemical, [Mannheimia] succiniciproducens. The note with it: pH 7.0, 0.1 M Tris-HCl, NADH co-substrate, room temperature.

B1: CgMDH (Corynebacterium glutamicum ATCC 13032) (protein)
chain: MNSPQNVSTKKVTVTGAAGQISYSLLWRIANGEVFGTDTPVELKLLEIPQALGGAEGVAMELLDSAFPLLRNITITADANEAFDGANAAFLVGAKPRGKGEERADLLANNGKIFGPQGKAINDNAADDIRVLVVGNPANTNALIASAAAPDVPASRFNAMMRLDHNRAISQLATKLGRGSAEFNNIVVWGNHSATQFPDITYATVGGEKVTDLVDHDWYVEEFIPRVANRGAEIIEVRGKSSAASAASSAIDHMRDWVQGTEAWSSAAIPSTGAYGIPEGIFVGLPTVSRNGEWEIVEGLEISDFQRARIDANAQELQAEREAVRDLL
notes: full length, C-terminal 6xHis (pET30a), expressed in E. coli BL21(DE3), Ni-NTA, ion exchange and size exclusion
As to B1, in the data set “purified protein [1]”, the Km was 46.1 ± 7.3 µM, the kcat is 920 ± 77 s⁻¹ and the kcat/Km was determined as 1.99e+07 ± 300000 M⁻¹ s⁻¹.

B2: MsMDH ([Mannheimia] succiniciproducens MBEL55E) (protein)
chain: MKVAVLGAAGGIGQALALLLKLQLPAGSSLSLYDVAPVTPGVAKDLSHIPTDVVVEGFAGTDPSEALKGADIVLISAGVARKPGMTRADLFGVNAGIIRSLTEKVAEQCPKACVGIITNPVNAMVAIAAEVLKKAGVYDKRKLFGITTLDILRAETFIAELKGLDPTRVTIPVIGGHSGVTILPLLSQVQNVEWSSEEEIIALTHRIQNAGTEVVEAKAGGGSATLSMAQAAARFALALVKASQGAKVVECAYVEGDGKYARFFAQPVRLGTEGVEEYLTLGKLSAFEEKALNAMLETLQGDIKSGEDFING
notes: as for B1
Consider B2, for which, in the data set “purified protein [2]”, the Km worked out at 18.2 ± 10.5 µM, the kcat came out at 376 ± 119 s⁻¹ and the kcat/Km is 2.07e+07 ± 4.5e+06 M⁻¹ s⁻¹.

B3: MsMDH ([Mannheimia] succiniciproducens MBEL55E; G11Q) (protein)
chain: MKVAVLGAAGQIGQALALLLKLQLPAGSSLSLYDVAPVTPGVAKDLSHIPTDVVVEGFAGTDPSEALKGADIVLISAGVARKPGMTRADLFGVNAGIIRSLTEKVAEQCPKACVGIITNPVNAMVAIAAEVLKKAGVYDKRKLFGITTLDILRAETFIAELKGLDPTRVTIPVIGGHSGVTILPLLSQVQNVEWSSEEEIIALTHRIQNAGTEVVEAKAGGGSATLSMAQAAARFALALVKASQGAKVVECAYVEGDGKYARFFAQPVRLGTEGVEEYLTLGKLSAFEEKALNAMLETLQGDIKSGEDFING
notes: as for B1
With B3, in the data set “purified protein [2]”, the Michaelis constant (Km) is 103.5 ± 25.9 µM, the kcat stood at 927 ± 152 s⁻¹ and the kcat/Km turned out to be 9e+06 ± 400000 M⁻¹ s⁻¹.
